Measured values reported in paper PMC9938351.

Columns and labels:
Test in all cases: ITC
[1] = target: SARS-CoV-2 ubiquitin-like domain 1 (Ubl1) of Nsp3 (residues 1–111) (SARS-CoV-2)
[2] = target: SARS-CoV-2 Ubl1 Y103A (SARS-CoV-2)
[3] = target: SARS-CoV-2 Ubl1 E95A (SARS-CoV-2)
[4] = target: SARS-CoV-2 Ubl1 E26A (SARS-CoV-2)
[5] = target: SARS-CoV-2 Ubl1 D110A (SARS-CoV-2)

| Substance | Kd [1] [µM] | dH [1] [kcal/mol] | stoichiometry N [1] | Kd [2] [µM] | dH [2] [kcal/mol] | stoichiometry N [2] | Kd [3] [µM] | dH [3] [kcal/mol] | stoichiometry N [3] | Kd [4] [µM] | dH [4] [kcal/mol] | stoichiometry N [4] | Kd [5] [µM] | dH [5] [kcal/mol] | stoichiometry N [5] |
| --- | --- | --- | --- | --- | --- | --- | --- | --- | --- | --- | --- | --- | --- | --- | --- |
| SARS-CoV-2 N-NTD R92A (from UniProt P0DTC9 47-174) (domain or fragment) | 55.7 | -3.18 | 0.58 | – | – | – | – | – | – | – | – | – | – | – | – |
| SARS-CoV-2 N protein N-terminal domain (NTD, residues 47–174) (from UniProt P0DTC9 47-174) (domain or fragment) | 17 | -2.7 | 0.73 | 57.7 | -0.741 | 0.57 | 53.1 | -1.24 | 0.75 | 78.6 | -3.37 | 0.74 | 50.8 | -2.65 | 0.64 |
